Positions count from the first letter of the chain named.
B1: 22248 (protein)
chain: MALPVTALLLPLALLLHAARPDIQMTQSPSSLSASVGDRVTITCKASDHINNWLAWYQQKPGQAPKLLIYGATTLETGVPSRFSGSGSGTDYTLTISSLQPEDFATYYCQQSWNTPWTFGQGTKLEIKRLEDLKNVFPPEVAVFEPSEAEISHTQKATLVCLATGFYPDHVELSWWVNGKEVHSGVCTDPQPLKEQPALNDSRYCLSSRLRVSATFWQNPRNHFRCQVQFYGLSENDEWTQDRAKPVTQIVSAEAWGRADCGFTSESYQQGVLSATILYEILLGKATLYAVLVSALVLMAMVKRKDSRGRAKRSGSGATNFSLLKQAGDVEENPGPTSATMDWIWRILFLVGAATGAHSGPQLGPYELWELSHGSGPLGIAGIFEQVQLQQPGAELVKPGASVKMSCKASGYAFSSYWINWMKQKPGQGLEWIGQIYPGDGDTNYNGKFKGRATLTADTSSSTAYMQLSSLTSEDSAVYFCARSITTVVGCAMDYWGQGTSVTVSSTRIQNPDPAVYQLRDSKSSDKSVCLFTDFDSQTNVSQSKDSDVYITDKCVLDMRSMDFKSNSAVAWSNKSDFACANAFNNSIIPEDTFFPSPESSCDVKLVEKSFETDTNLNFQNLSVIGFRILLLKVAGFNLLMTLRLWSSRAKRSGSGVKQTLNFDLLKLAGDVESNPGPSRGHMTEYKPTVRLATRDDVPRAVRTLAAAFADYPATRHTVDPDRHIERVTELQELFLTRVGLDIGKVWVADDGAAVAVWTTPESVEAGAVFAEIGPRMAELSGSRLAAQQQMEGLLAPHRPKEPAWFLATVGVSPDHQGKGLGSAVVLPGVEAAERAGVPAFLETSAPRNLPFYERLGFTVTADVEVPEGPRTWCMTRKPGA
B2: 22247 (protein)
chain: MALPVTALLLPLALLLHAARPACPQLGPYELWELSHGTGAVVRGAEFDIQMTQSPSSLSASVGDRVTITCKASDHINNWLAWYQQKPGQAPKLLIYGATTLETGVPSRFSGSGSGTDYTLTISSLQPEDFATYYCQQSWNTPWTFGQGTKLEIKRLEDLKNVFPPEVAVFEPSKAEIAHTQKATLVCLATGFYPDHVELSWWVNGKEVHSGVCTDPQPLKEQPALNDSRYCLSSRLRVSATFWQNPRNHFRCQVQFYGLSENDEWTQDRAKPVTQIVSAEAWGRADCGITSASYHQGVLSATILYEILLGKATLYAVLVSALVLMAMVKRKDSRGRAKRSGSGATNFSLLKQAGDVEENPGPTSATMDWIWRILFLVGAATGAHSGPQVQLQESGGGLAQAGGSLRLSCAASGRTFSMGWFRQAPGKEREFVAAITYSGGSPYYASSVRGRFTISRDNAKNTVYLQMNSLKPEDTAVYYCAANPTYGSDWNAENWGQGTQVTVSSGSGGGGSGGGGSGGGGSFEQVQLQQPGAELVKPGASVKMSCKASGYAFSSYWINWMKQKPGQGLEWIGQIYPGDGDTNYNGKFKGRATLTADTSSSTAYMQLSSLTSEDSAVYFCARSITTVVGCAMDYWGQGTSVTVSSTRIQNPDPAVYQLRDSKSSDKSVCLFTDFDSQTNVSQSKDSDVYITDKCVLDMRSMDFKSNSAVAWSNKSDFACANAFNNSIIPEDTFFPSSDVPCDVKLVEKSFETDTNLNFQNLSVIGFRILLLKVAGFNLLMTLRLWSSRAKRSGSGVKQTLNFDLLKLAGDVESNPGPSRGHMTEYKPTVRLATRDDVPRAVRTLAAAFADYPATRHTVDPDRHIERVTELQELFLTRVGLDIGKVWVADDGAAVAVWTTPESVEAGAVFAEIGPRMAELSGSRLAAQQQMEGLLAPHRPKEPAWFLATVGVSPDHQGKGLGSAVVLPGVEAAERAGVPAFLETSAPRNLPFYERLGFTVTADVEVPEGPRTWCMTRKPGA
B3: 22244 (protein)
chain: MALPVTALLLPLALLLHAARPDIQMTQSPSSLSASVGDRVTITCKASDHINNWLAWYQQKPGQAPKLLIYGATTLETGVPSRFSGSGSGTDYTLTISSLQPEDFATYYCQQSWNTPWTFGQGTKLEIKRLEDLKNVFPPEVAVFEPSEAEISHTQKATLVCLATGFYPDHVELSWWVNGKEVHSGVCTDPQPLKEQPALNDSRYCLSSRLRVSATFWQNPRNHFRCQVQFYGLSENDEWTQDRAKPVTQIVSAEAWGRADCGFTSESYQQGVLSATILYEILLGKATLYAVLVSALVLMAMVKRKDSRGRAKRSGSGATNFSLLKQAGDVEENPGPTSATMDWIWRILFLVGAATGAHSGPSACPYSNPSLCSGSGGGGSGGGGSGGGGSFEQVQLQQPGAELVKPGASVKMSCKASGYAFSSYWINWMKQKPGQGLEWIGQIYPGDGDTNYNGKFKGRATLTADTSSSTAYMQLSSLTSEDSAVYFCARSITTVVGCAMDYWGQGTSVTVSSTRIQNPDPAVYQLRDSKSSDKSVCLFTDFDSQTNVSQSKDSDVYITDKCVLDMRSMDFKSNSAVAWSNKSDFACANAFNNSIIPEDTFFPSPESSCDVKLVEKSFETDTNLNFQNLSVIGFRILLLKVAGFNLLMTLRLWSSRAKRSGSGVKQTLNFDLLKLAGDVESNPGPSRGHMTEYKPTVRLATRDDVPRAVRTLAAAFADYPATRHTVDPDRHIERVTELQELFLTRVGLDIGKVWVADDGAAVAVWTTPESVEAGAVFAEIGPRMAELSGSRLAAQQQMEGLLAPHRPKEPAWFLATVGVSPDHQGKGLGSAVVLPGVEAAERAGVPAFLETSAPRNLPFYERLGFTVTADVEVPEGPRTWCMTRKPGA
B4: 22211 (protein)
chain: B3 chain with S362Q, A363L, C364G, S367E, N368L, P369W, S370E, C372S, S373H
B5: 22243 (protein)
chain: MALPVTALLLPLALLLHAARPACQDKLTQWPKWLEGTGGGGSGGGGSGGGGSEFDIQMTQSPSSLSASVGDRVTITCKASDHINNWLAWYQQKPGQAPKLLIYGATTLETGVPSRFSGSGSGTDYTLTISSLQPEDFATYYCQQSWNTPWTFGQGTKLEIKRLEDLKNVFPPEVAVFEPSKAEIAHTQKATLVCLATGFYPDHVELSWWVNGKEVHSGVCTDPQPLKEQPALNDSRYCLSSRLRVSATFWQNPRNHFRCQVQFYGLSENDEWTQDRAKPVTQIVSAEAWGRADCGITSASYHQGVLSATILYEILLGKATLYAVLVSALVLMAMVKRKDSRGRAKRSGSGATNFSLLKQAGDVEENPGPTSATMDWIWRILFLVGAATGAHSGPQVQLQESGGGLAQAGGSLRLSCAASGRTFSMGWFRQAPGKEREFVAAITYSGGSPYYASSVRGRFTISRDNAKNTVYLQMNSLKPEDTAVYYCAANPTYGSDWNAENWGQGTQVTVSSGSGGGGSGGGGSGGGGSFEQVQLQQPGAELVKPGASVKMSCKASGYAFSSYWINWMKQKPGQGLEWIGQIYPGDGDTNYNGKFKGRATLTADTSSSTAYMQLSSLTSEDSAVYFCARSITTVVGCAMDYWGQGTSVTVSSTRIQNPDPAVYQLRDSKSSDKSVCLFTDFDSQTNVSQSKDSDVYITDKCVLDMRSMDFKSNSAVAWSNKSDFACANAFNNSIIPEDTFFPSSDVPCDVKLVEKSFETDTNLNFQNLSVIGFRILLLKVAGFNLLMTLRLWSSRAKRSGSGVKQTLNFDLLKLAGDVESNPGPSRGHMTEYKPTVRLATRDDVPRAVRTLAAAFADYPATRHTVDPDRHIERVTELQELFLTRVGLDIGKVWVADDGAAVAVWTTPESVEAGAVFAEIGPRMAELSGSRLAAQQQMEGLLAPHRPKEPAWFLATVGVSPDHQGKGLGSAVVLPGVEAAERAGVPAFLETSAPRNLPFYERLGFTVTADVEVPEGPRTWCMTRKPGA
B6: 22214 (protein)
chain: MALPVTALLLPLALLLHAARPACPYINIYNAEPANPSEKNSPTQYAYGTGPQGIFGQPGYINEFDIQMTQSPSSLSASVGDRVTITCKASDHINNWLAWYQQKPGQAPKLLIYGATTLETGVPSRFSGSGSGTDYTLTISSLQPEDFATYYCQQSWNTPWTFGQGTKLEIKRLEDLKNVFPPEVAVFEPSKAEIAHTQKATLVCLATGFYPDHVELSWWVNGKEVHSGVCTDPQPLKEQPALNDSRYCLSSRLRVSATFWQNPRNHFRCQVQFYGLSENDEWTQDRAKPVTQIVSAEAWGRADCGITSASYHQGVLSATILYEILLGKATLYAVLVSALVLMAMVKRKDSRGRAKRSGSGATNFSLLKQAGDVEENPGPTSATMDWIWRILFLVGAATGAHSGPQVQLQESGGGLAQAGGSLRLSCAASGRTFSMGWFRQAPGKEREFVAAITYSGGSPYYASSVRGRFTISRDNAKNTVYLQMNSLKPEDTAVYYCAANPTYGSDWNAENWGQGTQVTVSSGSGGGGSGGGGSGGGGSFEQVQLQQPGAELVKPGASVKMSCKASGYAFSSYWINWMKQKPGQGLEWIGQIYPGDGDTNYNGKFKGRATLTADTSSSTAYMQLSSLTSEDSAVYFCARSITTVVGCAMDYWGQGTSVTVSSTRIQNPDPAVYQLRDSKSSDKSVCLFTDFDSQTNVSQSKDSDVYITDKCVLDMRSMDFKSNSAVAWSNKSDFACANAFNNSIIPEDTFFPSSDVPCDVKLVEKSFETDTNLNFQNLSVIGFRILLLKVAGFNLLMTLRLWSSRAKRSGSGVKQTLNFDLLKLAGDVESNPGPSRGHMTEYKPTVRLATRDDVPRAVRTLAAAFADYPATRHTVDPDRHIERVTELQELFLTRVGLDIGKVWVADDGAAVAVWTTPESVEAGAVFAEIGPRMAELSGSRLAAQQQMEGLLAPHRPKEPAWFLATVGVSPDHQGKGLGSAVVLPGVEAAERAGVPAFLETSAPRNLPFYERLGFTVTADVEVPEGPRTWCMTRKPGA

tested on: RAJI cells; experiment: JNG assay, co-culture with RAJI cells; type: cell-based; conditions: JNG cells expressing construct, co-culture with Raji
Procedure, shortened: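 Jurkat-NFAT-GFP (JNG) cells stably expressing SAR constructs via lentiviral transduction and puromycin/blasticidin selection were cocultured with target cells at E:T ~1:2 for ~4–18 h. NFAT-driven GFP was measured by FACS versus parental JNG cells; scores +/- to 5+ denote ~5–50% GFP-positive cells.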

Molecule | NFAT-GFP ASSAY: Raji
B1 | Raji (3+) (refer to approximately 5%, 10%, 20%, 30%, 40% and 50% GFP positive cells)
B2 | Raji (2+) (refer to approximately 5%, 10%, 20%, 30%, 40% and 50% GFP positive cells)
B3 | Raji (+/-) (refer to approximately 5%, 10%, 20%, 30%, 40% and 50% GFP positive cells)
B4 | 2+ (refer to approximately 5%, 10%, 20%, 30%, 40% and 50% GFP positive cells)
B5 | Raji (3+) (refer to approximately 5%, 10%, 20%, 30%, 40% and 50% GFP positive cells)
B6 | Raji (+) (refer to approximately 5%, 10%, 20%, 30%, 40% and 50% GFP positive cells)

Source: patent US20230212319A1, “NOVEL ANTIGEN BINDING DOMAINS AND SYNTHETIC ANTIGEN RECEPTORS INCORPORATING THE SAME” (University of Southern California, priority 2020, published 2023)
